# Article doi:10.1101/2021.04.12.439405 (bioRxiv, 2021)
# Positions count from the first letter of the chain named.
# B1: His-MukF (natural protein, E. coli, UniProt P60293 1-440, looked up)
# chain: MSEFSQTVPELVAWARKNDFSISLPVDRLSFLLAVATLNGERLDGEMSEGELVDAFRHVSDAFEQTSETIGVRANNAINDMVRQRLLNRFTSEQAEGNAIYRLTPLGIGITDYYIRQREFSTLRLSMQLSIVAGELKRAADAAEEGGDEFHWHRNVYAPLKYSVAEIFDSIDLTQRLMDEQQQQVKDDIAQLLNKDWRAAISSCELLLSETSGTLRELQDTLEAAGDKLQANLLRIQDATMTHDDLHFVDRLVFDLQSKLDRIISWGQQSIDLWIGYDRHVHKFIRTAIDMDKNRVFAQRLRQSVQTYFDEPWALTYANADRLLDMRDEEMALRDEEVTGELPEDLEYEEFNEIREQLAAIIEEQLAVYKTRQVPLDLGLVVREYLSQYPRARHFDVARIVIDQAVRLGVAQADFTGLPAKWQPINDYGAKVQAHVIDKY
# Legend:
# [1] = target: T1, MukB-His (wild type MukB) (E. coli, UniProt P22523 1-1486); assay: native MS
# T1 sequence (looked up): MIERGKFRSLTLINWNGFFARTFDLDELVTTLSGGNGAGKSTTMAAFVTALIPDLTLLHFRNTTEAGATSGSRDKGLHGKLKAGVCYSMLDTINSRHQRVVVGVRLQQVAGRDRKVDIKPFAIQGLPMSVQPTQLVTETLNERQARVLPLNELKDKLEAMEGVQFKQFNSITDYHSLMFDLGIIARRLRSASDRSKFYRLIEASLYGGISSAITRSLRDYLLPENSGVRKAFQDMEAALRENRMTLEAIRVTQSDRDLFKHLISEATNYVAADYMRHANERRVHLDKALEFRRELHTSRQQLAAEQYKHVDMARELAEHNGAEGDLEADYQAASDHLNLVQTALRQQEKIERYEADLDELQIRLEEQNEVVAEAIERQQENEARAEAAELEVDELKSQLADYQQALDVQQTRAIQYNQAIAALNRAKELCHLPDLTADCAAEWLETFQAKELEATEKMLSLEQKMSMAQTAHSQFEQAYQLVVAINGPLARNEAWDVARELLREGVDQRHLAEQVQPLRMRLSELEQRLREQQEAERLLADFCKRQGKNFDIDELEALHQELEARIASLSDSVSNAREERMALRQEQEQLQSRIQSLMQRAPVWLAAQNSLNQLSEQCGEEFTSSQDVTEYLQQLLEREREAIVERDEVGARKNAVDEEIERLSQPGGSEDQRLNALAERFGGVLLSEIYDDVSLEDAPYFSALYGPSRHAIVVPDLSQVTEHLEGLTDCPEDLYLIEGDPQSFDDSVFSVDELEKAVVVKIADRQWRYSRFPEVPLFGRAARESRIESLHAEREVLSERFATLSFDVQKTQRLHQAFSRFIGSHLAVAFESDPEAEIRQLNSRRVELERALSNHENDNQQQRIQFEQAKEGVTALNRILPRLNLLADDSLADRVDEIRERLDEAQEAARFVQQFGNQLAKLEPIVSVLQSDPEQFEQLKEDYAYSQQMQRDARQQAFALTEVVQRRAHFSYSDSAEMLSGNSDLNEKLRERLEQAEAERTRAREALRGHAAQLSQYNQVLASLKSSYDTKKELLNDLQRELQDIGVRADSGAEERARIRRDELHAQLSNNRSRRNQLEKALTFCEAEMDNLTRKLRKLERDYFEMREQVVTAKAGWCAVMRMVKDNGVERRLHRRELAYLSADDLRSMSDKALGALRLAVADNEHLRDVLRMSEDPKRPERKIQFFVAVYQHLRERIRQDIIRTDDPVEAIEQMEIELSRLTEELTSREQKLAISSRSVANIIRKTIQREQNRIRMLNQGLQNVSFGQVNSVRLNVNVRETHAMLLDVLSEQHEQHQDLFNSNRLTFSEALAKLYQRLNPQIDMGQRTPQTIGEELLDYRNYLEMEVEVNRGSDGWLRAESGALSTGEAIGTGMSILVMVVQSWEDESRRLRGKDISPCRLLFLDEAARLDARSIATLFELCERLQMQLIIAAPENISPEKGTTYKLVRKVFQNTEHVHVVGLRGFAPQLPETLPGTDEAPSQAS
# [2] = target: T2, MukB^KRK (K1114E, R1122E and K1125E) (E. coli, UniProt P22523 1-1486, K1114E | R1122E | K1125E); assay: native gel or EMSA
# T2 sequence (looked up): T1 sequence (looked up) with K1114E, R1122E, K1125E
binder,measurement,setting,value
B1,binding result,[1],binds
same,binding result,[2],binds
